Assay results published in article PMC4742754, “Biochemical and Structural Characterization of the Interaction between the Siderocalin NGAL/LCN2 (Neutrophil Gelatinase-associated Lipocalin/Lipocalin 2) and the N-terminal Domain of Its Endocytic Receptor SLC22A17*” (The Journal of Biological Chemistry, 2015).

B1: GFP-hLCN2-R-NTD (domain or fragment)
chain: MASDPIFTLAPPLHCHYGAFPPNASGWEQPPNASGVSVASAALAASAASRVATSTDPSCSGFAPPDFNHCLKDWDYNGLPVLTTNAIGQWDLVCDLGWQVILEQI
modifications: Limits: printed residues 1-105 are numbered on the 538-aa isoform (NM_020372); the 649-aa entry is taken to carry a 111-residue N-terminal extension (649-538), so offset +111 (Cys15/59/70/94 = …)

Key:
[1] = biological target: N-terminal domain of the human lipocalin 2 receptor (hLCN2-R-NTD), wild type (human) (UniProt Q8WUG5); test: ITC; apoNGAL (500 μM) in the syringe, hLCN2-R-NTD form (50 μM) in the cell; 25 °C, 20 mM Tris, pH 7.4, 50 mM NaCl; single binding site fit
[2] = biological target: hLCN2-R-NTD double mutant (hLCN2-R-NTD-DM), Cys-15–Cys-94 mutated out (human) (UniProt Q8WUG5); test: as above
[3] = biological target: hLCN2-R-NTD quadruple mutant (hLCN2-R-NTD-QM) (human) (UniProt Q8WUG5); test: as above
[4] = biological target: hLCN2-R-NTD quadruple mutant (hLCN2-R-NTD-QM) (human) (UniProt Q8WUG5); test: NMR 15N CPMG relaxation dispersion; 15N-labelled hLCN2-R-NTD-QM with 0.05, 0.1 and 0.15 eq of unlabelled NGAL; 25 °C; two-state exchange fit, kex and populations as global parameters for the C-terminal residues
[5] = biological target: T1, human neutrophil gelatinase-associated lipocalin, hNGAL(C87S) (human, UniProt P80188 21-198, C87S); test: MST; GFP-hLCN2-R-NTD fixed at 500 nM, apoNGAL varied 0–300 μM; 20 mM Tris/HCl, pH 7.4, 25 °C; settings: both partners purified
T1 construct: human NGAL (LCN2), coding region amplified from pGEX-4T-hNGAL(C87S); The holo form is the same protein loaded with ferric enterobactin (a small molecule); it is told apart by the assay; the wild type was made only for the spin label; also called apoNGAL; LCN2; not shown: His6, N-terminal, cleaved
T1 sequence (P80188 21-198 C107S): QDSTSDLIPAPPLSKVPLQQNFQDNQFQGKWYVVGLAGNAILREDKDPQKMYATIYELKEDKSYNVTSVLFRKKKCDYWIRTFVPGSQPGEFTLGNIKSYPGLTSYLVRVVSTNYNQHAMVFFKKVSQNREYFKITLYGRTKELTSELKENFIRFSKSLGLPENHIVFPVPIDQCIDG

[6] = biological target: T1, human neutrophil gelatinase-associated …; test: MST; GFP-hLCN2-R-NTD fixed at 500 nM, NGAL/[FeIII(Ent)]3- (NGAL loaded with ferric enterobactin) varied 0–300 μM; 20 mM Tris/HCl, pH 7.4, 25 °C; settings: both partners purified

Row | Molecule | Kd [1] [µM] | dH [1] [kcal/mol] | stoichiometry N [1] | Kd [2] [µM] | dH [2] [kcal/mol] | Kd [3] [µM] | dH [3] [kcal/mol] | kex (0.1 eq of NGAL) [4] [s⁻¹] | kex (0.15 eq of NGAL) [4] [s⁻¹] | population of bound state (0.1 eq of NGAL) [4] [%] | Kd [5] [µM] | Kd [6] [µM]
1 | human neutrophil gelatinase-associated lipocalin, hNGAL(C87S) (from UniProt P80188 21-198) (ligand) | 10 | -4.5 | 1 | 9 | -2.1 | 8 | -1.4 | 1300 | 1200 | 1 | – | –
2 | B1 | – | – | – | – | – | – | – | – | – | – | 6.6 | 20.7
